Data published in patent publication US10787678 (UNIVERSITY OF GEORGIA RESEARCH FOUNDATION, dated 2020).

Tests used:
Cry3Bb toxin [1] = target: T1, Cry3Bb toxin (Bacillus thuringiensis, UniProt Q06117 64-652); test: ELISA, biotinylated peptide titrated on plate-coated activated Cry3Bb; one-site saturation binding fit of specific binding
T1 construct: also called Cry3Bb protein; trypsinized Cry3Bb

Cry3Bb toxin [2] = target: T1, Cry3Bb toxin; test: cell-based or functional assay

T1 sequence (Q06117 64-652 limits assumed): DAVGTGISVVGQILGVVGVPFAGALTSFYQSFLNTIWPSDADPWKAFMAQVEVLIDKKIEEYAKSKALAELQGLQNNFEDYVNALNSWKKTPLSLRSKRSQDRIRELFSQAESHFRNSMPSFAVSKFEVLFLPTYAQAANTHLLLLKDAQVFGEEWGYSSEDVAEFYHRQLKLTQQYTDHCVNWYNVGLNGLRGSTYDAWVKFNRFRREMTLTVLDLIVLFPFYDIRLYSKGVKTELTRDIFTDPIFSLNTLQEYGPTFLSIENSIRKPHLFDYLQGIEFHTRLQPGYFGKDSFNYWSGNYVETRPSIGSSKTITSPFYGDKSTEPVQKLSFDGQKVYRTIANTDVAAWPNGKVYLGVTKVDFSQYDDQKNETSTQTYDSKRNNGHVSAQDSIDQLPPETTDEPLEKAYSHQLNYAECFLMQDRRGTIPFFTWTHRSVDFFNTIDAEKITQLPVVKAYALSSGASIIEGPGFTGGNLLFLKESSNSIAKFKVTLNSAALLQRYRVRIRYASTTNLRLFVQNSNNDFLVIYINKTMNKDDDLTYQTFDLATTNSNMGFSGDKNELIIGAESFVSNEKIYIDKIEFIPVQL

B1: AdCad1-MPED peptide (peptide)
chain: DSDSYITVLPLVDAVSTAKLVTIHATDPDDTSEVQYQIESCIGSGDLLQKLCGNNPFEINKISGEISAQIQSANLSKWDGHFNLTVTAADEAGFDDKNHTDEAVVTLYLVTKLHLVAFDFENSLEQVQNKSNEIKTILDEQFAETSDGGTPYVATVQGANAKSDEITTATVYFLNLKQQKPVNKDNIYSYCTNTQYFGSMRSAFLAEGLSLMSFDGTSNETEDMEEILT
modifications: biotinylated with sulfo-NHS-photocleavable biotin (50-fold molar excess) in the binding assay
notes: Expressed in E. coli from pET-30a (Nde I / Xho I), purified from inclusion bodies on a Ni-chelating column; In the bioassays it was used unlabelled, as inclusion bodies; also called biotinylated-AdCad1-MPED; not shown: C-terminal His-tag from the pET-30a vector
Kd (Cry3Bb toxin [1]): 40.6 nM | larval mortality with Cry3Bb (10 ug/cm^2) plus peptide at a 1:10 mass ratio, against 10% with toxin alone (Cry3Bb toxin [2]): > 25%

B2: AdCad1-CR9 peptide (peptide)
chain: TEMIYKLTVEASIKEQTQINGKPTFARCEFNVGFFDKDNTDPIFKNKHEDTHEMAEEDDTLFYVLIENATYAKEDVPDDLSTFYLLAEGERDIFDVDKFTGKVTLNKPLDYETKKSHSLTIQSSNSDKLKLNASEETKLHLTIIVTDINDHAPVM
modifications: biotinylated with sulfo-NHS-photocleavable biotin (50-fold molar excess) in the binding assay
notes: Expressed in E. coli from pET-30a (Nde I / Xho I), purified from inclusion bodies on a Ni-chelating column; In the bioassays it was used unlabelled, as inclusion bodies; also called biotinylated-AdCad1-CR9; not shown: C-terminal His-tag from the pET-30a vector
Kd (Cry3Bb toxin [1]): 23.2 nM | larval mortality with Cry3Bb (10 ug/cm^2) plus peptide at a 1:10 mass ratio, against 10% with toxin alone (Cry3Bb toxin [2]): > 25%
